Experimental data reported in publication PMC10579536 (Research and Practice in Thrombosis and Haemostasis, 2023).
Like-named read-outs stand apart in the source and are kept apart here. Blank lines part the entries; values can stand above or below the molecule they belong to.

B2: Tie-2/Fc (Fc fusion, human, UniProt Q02763 23-748, looked up)
chain: AMDLILINSLPLVSDAETSLTCIASGWRPHEPITIGRDFEALMNQHQDPLEVTQDVTREWAKKVVWKREKASKINGAYFCEGRVRGEAIRIRTMKMRQQASFLPATLTMTVDKGDNVNISFKKVLIKEEDAVIYKNGSFIHSVPRHEVPDILEVHLPHAQPQDAGVYSARYIGGNLFTSAFTRLIVRRCEAQKWGPECNHLCTACMNNGVCHEDTGECICPPGFMGRTCEKACELHTFGRTCKERCSGQEGCKSYVFCLPDPYGCSCATGWKGLQCNEACHPGFYGPDCKLRCSCNNGEMCDRFQGCLCSPGWQGLQCEREGIQRMTPKIVDLPDHIEVNSGKFNPICKASGWPLPTNEEMTLVKPDGTVLHPKDFNHTDHFSVAIFTIHRILPPDSGVWVCSVNTVAGMVEKPFNISVKVLPKPLNAPNVIDTGHNFAVINISSEPYFGDGPIKSKKLLYKPVNHYEAWQHIQVTNEIVTLNYLEPRTEYELCVQLVRRGEGGEGHPGPVRRFTTASIGLPPPRGLNLLPKSQTTLNLTWQPIFPSSEDDFYVEVERRSVQKSDQQNIKVPGNLTSVLLNNLHPREQYVVRARVNTKAQGEWSEDLTAWTLSDILPPQPENIKISNITHSSAVISWTILDGYSISSITIRYKVQGKNEDQHVDVKIKNATITQYQLKGLEPETAYQVDIFAENNIGSSNPAFSHELVTLPESQAPADLGGGKMLL
B4: Recombinant human angiopoietin-2 (ligand, UniProt O15123 19-496, looked up)
chain: YNNFRKSMDSIGKKQYQVQHGSCSYTFLLPEMDNCRSSSSPYVSNAVQRDAPLEYDDSVQRLQVLENIMENNTQWLMKLENYIQDNMKKEMVEIQQNAVQNQTAVMIEIGTNLLNQTAEQTRKLTDVEAQVLNQTTRLELQLLEHSLSTNKLEKQILDQTSEINKLQDKNSFLEKKVLAMEDKHIIQLQSIKEEKDQLQVLVSKQNSIIEELEKKIVTATVNNSVLQKQQHDLMETVNNLLTMMSTSNSAKDPTVAKEEQISFRDCAEVFKSGHTTNGIYTLTFPNSTEEIKAYCDMEAGGGGWTIIQRREDGSVDFQRTWKEYKVGFGNPSGEYWLGNEFVSQLTNQQRYVLKIHLKDWEGNEAYSLYEHFYLSSEELNYRIHLKGLTGTAGKISSISQPGNDFSTKDGDNDKCICKCSQMLTGGWWFDACGPSNLNGMYYPQRQNTNKFNGIKWYYWKGSGYSLKATTMMIRPADF
B5: Recombinant human angiopoietin-1 (ligand, UniProt Q15389 16-498, looked up)
chain: HIGCSNQRRSPENSGRRYNRIQHGQCAYTFILPEHDGNCRESTTDQYNTNALQRDAPHVEPDFSSQKLQHLEHVMENYTQWLQKLENYIVENMKSEMAQIQQNAVQNHTATMLEIGTSLLSQTAEQTRKLTDVETQVLNQTSRLEIQLLENSLSTYKLEKQLLQQTNEILKIHEKNSLLEHKILEMEGKHKEELDTLKEEKENLQGLVTRQTYIIQELEKQLNRATTNNSVLQKQQLELMDTVHNLVNLCTKEGVLLKGGKREEEKPFRDCADVYQAGFNKSGIYTIYINNMPEPKKVFCNMDVNGGGWTVIQHREDGSLDFQRGWKEYKMGFGNPSGEYWLGNEFIFAITSQRQYMLRIELMDWEGNRAYSQYDRFHIGNEKQNYRLYLKGHTGTAGKQSSLILHGADFSTKDADNDNCMCKCALMLTGGWWFDACGPSNLNGMFYTAGQNHGKLNGIKWHYFKGPSYSLRSTTMMIRPLDF

Assays:
Assay in all cases: ELISA
[1] = biological target: Recombinant human angiopoietin-2 (human) (UniProt O15123)
[2] = biological target: Recombinant VWF fragment D’-D3-HPC4
[3] = biological target: B4
[4] = biological target: B5
[5] = biological target: B4; remark: listed apart in the source
Tie-2/Fc = biological target: B2
[6] = biological target: von Willebrand factor (plasma-derived) (human (endogenous in plasma), UniProt P04275 764-2813)

Molecule: B2
EC50 [4]: 0.2 ± 0.1 nM
EC50 [5]: 0.2 ± 0.1 nM

B3: Recombinant VWF A2 domain fused to Fc (Fc fusion)
chain: PGLLGVSTLGPKRNSMVLDVAFVLEGSDKIGEADFNRSKEFMEEVIQRMDVGQDSIHVTVLQYSYMVTVEYPFSEAQSKGDILQRVREIRYQGGNRTNTGLALRYLSDHSFLVSQGDREQAPNLVYMVTGNPASDEIKRLPGDIQVVPIGVGPNANVQELERIGWPNAPILIQDFETLPREAPDLVLQRCCSG
EC50 [3]: 36.7 ± 9.7 nM

Molecule: B4
binding result (Tie-2/Fc): binds
EC50 [6]: 5.3 ± 1 nM

Molecule: B5
binding result (Tie-2/Fc): binds

Next, values leading:

EC50 [1]: 159 nM
Molecule: Recombinant VWF fragment D’-D3-HPC4 (domain or fragment)

maximal percent inhibition of binding to Ang-2 [2]: 77%
Molecule: Recombinant FVIII (from UniProt P00451 20-2351) (natural protein)

EC50 [3]: 18 ± 6 nM
B1: Recombinant VWF D4 domain fused to Fc (Fc fusion)
chain: PCVCTGSSTRHIVTFDGQNFKLTGSCSYVLFQNKEQDLEVILHNGACSPGARQGCMKSIEVKHSALSVELHSDMEVTVNGRLVSVPYVGGNMEVNVYGAIMHEVRFNHLGHIFTFTPQNNEFQLQLSPKTFASKTYGLCGICDENGANDFMLRDGTVTTDWKTLVQEWTVQRPGQTCQPILEEQCLVPDSSHCQVLLLPLFAECHKVLAPATFYAICQQDSCHQEQVCEVIASYAHLCRTNGVCVDWRTPDFCAMSCPPSLVYNHCEHGCPRHCDGNVSSCGDHPSEGCFCPPDKVMLEGSCVPEEACTQCIGEDGVQHQFLEAWVPDHQPCQICTCLSGRKVNCTTQPCPT
